Source: patent US20240059770A1

Biological target: human glucose-dependent insulinotrophic polypeptide (GIP) (human)
Assay: sandwich immunoassay (MSD ECL): C-Terminal Antibody as capture, ruthenium-labelled N-Terminal Antibody as detection

Sequence of human glucose-dependent insulinotrophic polypeptide (GIP) (human) (peptide, as listed by the source): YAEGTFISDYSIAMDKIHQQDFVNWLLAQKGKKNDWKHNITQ

B1: Anti-Human Oxyntomodulin N-Terminal Antibody (antibody, V domains shown)
VH: QIQLVQSGPELKKPGETVKISCKASGYTFTDYAFSWVKQAPGKGLKWMGWITTNTGEATYADDFKGRFAFSLETSASTAYLQISNLKNEDTATYFCARETEYGDSSWFGHWGQGTLVTVSA
VL: DIVLTQSPASLAVSLGQRATISCRASESVDGWGNSFMHWYQQKPGQPPKLLIYLATYRVAGIPARFSGSGSRTDFTLTINPVEADDVATYYCMQSSEDPYTFGGGTKLEIKR
B1 showed a percent cross-reactivity (ECL against human oxyntomodulin (53-89), blank subtracted) of 0.12%.
